Experimental findings from US20180127487A1 (Sanofi, published 2018) are described below.

Assay [1] addresses T1, recombinant human FcRn (human, UniProt P55899 24-297; P61769 21-119).
T1 construct: also called human FcRn receptor
Description: SPR (Biacore T200), human FcRn immobilised on CM5 chip.

The target in assay [2] is T2, recombinant mouse FcRn (mouse, UniProt Q61559 22-297; P01887 21-119).
T2 sequence 1: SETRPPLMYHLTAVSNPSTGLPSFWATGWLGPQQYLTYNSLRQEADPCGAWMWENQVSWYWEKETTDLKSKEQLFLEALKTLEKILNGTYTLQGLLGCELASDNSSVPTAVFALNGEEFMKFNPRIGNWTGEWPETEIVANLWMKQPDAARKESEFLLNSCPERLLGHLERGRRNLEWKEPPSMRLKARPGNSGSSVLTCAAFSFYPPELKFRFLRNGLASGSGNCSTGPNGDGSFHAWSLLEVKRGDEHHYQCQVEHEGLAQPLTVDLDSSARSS
T2 sequence 2: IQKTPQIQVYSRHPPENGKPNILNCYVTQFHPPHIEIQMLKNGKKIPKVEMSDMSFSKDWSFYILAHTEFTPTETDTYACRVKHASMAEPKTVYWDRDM
As to the kind of experiment: SPR (Biacore T200), mouse FcRn immobilised on CM5 chip. (In general: SPR reads the build-up and loss of mass on a sensor chip optically.)

Assay [3] concerns the target T1, recombinant human FcRn. As to the kind of experiment: SPR, human FcRn immobilised; relative to mAb1.
Assay [4] concerns the target T3, Recombinant human HPC4-tagged FcγRIIIa-V158 (human, UniProt P08637 17-208).
T3 construct: Valine at 158 is a polymorphism, named without an old residue; also called Val158; not shown: HPC4 tag
Description: SPR (Biacore 3000), HPC4-tagged FcγRIIIa-V158 captured on anti-HPC4 CM5 chip, antibody injected 2 min, in duplicate; concentration (900, 300 or 100 nM in the methods) not printed on the sheet.

The target in assay [5] is T4, Recombinant human HPC4-tagged FcγRIII-F158 (human, UniProt P08637 17-208).
T4 construct: also called FcγRIIIaF158; not shown: HPC4 tag
T4 sequence (P08637 17-208): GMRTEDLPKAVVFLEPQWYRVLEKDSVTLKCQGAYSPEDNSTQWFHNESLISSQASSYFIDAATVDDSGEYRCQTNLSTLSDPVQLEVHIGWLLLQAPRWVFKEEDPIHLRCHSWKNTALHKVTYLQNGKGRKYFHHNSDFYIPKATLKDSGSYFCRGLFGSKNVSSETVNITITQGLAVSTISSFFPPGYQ
Description: SPR (Biacore 3000), HPC4-tagged FcγRIII-F158 captured on anti-HPC4 CM5 chip, antibody injected 2 min, in duplicate; concentration (900, 300 or 100 nM in the methods) not printed on the sheet.

In assay [6] the target is T2, recombinant mouse FcRn. As to the kind of experiment: SPR, mouse FcRn immobilised; relative to mAb1.
The target of assay [7] is T3, Recombinant human HPC4-tagged …. As to the kind of experiment: SPR (Biacore 3000), HPC4-tagged FcγRIIIa-V158 captured on anti-HPC4 CM5 chip, antibody injected 2 min, in duplicate; concentration (900, 300 or 100 nM in the methods) not printed on the sheet. This is another data set of the same source.
For assay [8], the target named is T2, recombinant mouse FcRn. Description: SPR, mouse FcRn immobilised; relative to mAb2.
The target in assay [9] is T4, Recombinant human HPC4-tagged …. As to the kind of experiment: SPR (Biacore 3000), HPC4-tagged FcγRIII-F158 captured on anti-HPC4 CM5 chip, antibody injected 2 min, in duplicate; concentration (900, 300 or 100 nM in the methods) not printed on the sheet. This is another data set of the same source.
Assay [10] concerns the target T5, His-tagged CHIKV E2 LR2006 (Chikungunya virus strain LR2006, UniProt Q8JUX5 326-1220).
T5 construct: also called CHIKV pE2-E1 antigen derived from CHIKV strain LR2006; pE2-E1 target

In assay [11] the target is T1, recombinant human FcRn. As to the kind of experiment: SPR (Biacore T200), human FcRn immobilised on CM5 chip. The source holds these as a separate data set.
The next assay concerns the target Antigen (E2) (Chikungunya virus). Description: SPR (Biacore T200), His-tagged antigen captured by anti-His antibody, 1:1 model.
Assay [12] deals with T1, recombinant human FcRn. As to the kind of experiment: SPR, human FcRn immobilised; relative to mAb2.
In assay [13] the target is T2, recombinant mouse FcRn. As to the kind of experiment: SPR (Biacore T200), mouse FcRn immobilised on CM5 chip. This is another data set of the same source.

Changes are numbered by the printed parent chain. Names and notes keep the numbering of the source. Like-named read-outs stand apart in the source and are kept apart here.

T1 sequence (P55899 24-297 limits assumed, chain 1 of 2): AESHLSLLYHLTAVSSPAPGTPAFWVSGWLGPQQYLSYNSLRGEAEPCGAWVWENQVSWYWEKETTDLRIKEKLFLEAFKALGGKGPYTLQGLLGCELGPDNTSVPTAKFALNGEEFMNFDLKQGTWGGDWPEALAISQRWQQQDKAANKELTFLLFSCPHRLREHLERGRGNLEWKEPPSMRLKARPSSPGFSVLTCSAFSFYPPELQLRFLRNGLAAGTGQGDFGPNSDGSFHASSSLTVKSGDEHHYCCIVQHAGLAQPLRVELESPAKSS
T1 sequence (P61769 21-119 limits assumed, chain 2 of 2): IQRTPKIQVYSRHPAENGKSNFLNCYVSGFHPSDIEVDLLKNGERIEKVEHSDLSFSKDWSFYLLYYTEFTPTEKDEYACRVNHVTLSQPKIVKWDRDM
T3 sequence (P08637 17-208 F176V): as the sequence (P08637 17-208) above, with F160V counted along it

B1: mAb3 (antibody)
heavy: not shown
light: QAVVTQPPSVSGAPGQRVTISCTGSSSNIGADYNVHWYQLLPGTAPKLLIYGNTNRPSGVPDRFSGSKSGTSASLAITGLQAEDEADYYCQSYDSSLSASVFGGGTKLTVLGQPKAAPSVTLFPPSSEELQANKATLVCLISDFYPGAVTVAWKADSSPVKAGVETTTPSKQSNNKYAASSYLSLTPEQWKSHRSYSCQVTHEGSTVEKTVAPTECS
notes: also called mAb1A
Usually Kd stands for the equilibrium constant for the complex coming apart. In the case of B1, the figures for the Kd in the assay with recombinant human FcRn [1] and with recombinant mouse FcRn [2] were 45 nM and 9.3 nM, respectively. Further, the “Affinity Increase (fold)” value with recombinant human FcRn [3] amounted to 7.7 fold; with recombinant mouse FcRn [6], 2.1 fold. Besides, the binding result in [4] and in [5] was “binds” each time.

B2: mAb4 (antibody)
heavy: QVQLVQSGAEVKKPGASVKVSCKASGYSFTSYGISWVRQAPGQGLEWMGWISTYKGYTQYAQNFQGRVTITTDTPATTVYMELRSLRSDDTAVYYCARVLSETGYFYYYYYGMDVWGQGTLVTVSSASTKGPSVFPLAPSSKSTSGGTAALGCLVKDYFPEPVTVSWNSGALTSGVHTFPAVLQSSGLYSLSSVVTVPSSSLGTQTYICNVNHKPSNTKVDKKVEPKSCDKTHTCPPCPAPELLGGPSVFLFPPKPKDTLMISRTPEVTCVVVDVSHEDPEVKFNWYVDGVEVHNAKTKPREEQYNSTYRVVSVLAVLHQDWLNGKEYKCKVSNKALPAPIEKTISKAKGQPREPQVYTLPPSRDELTKNQVSLTCLVKGFYPSDIAVAWESNGQPENNYKTTPPVLDSDGSFFLYSKLTVDKSRWQQGNVFSCSVMHEALHAHYTQKSLSLSPG
light: B1 light
notes: also called mAb1AAA
For B2, the values for the Kd with recombinant human FcRn [1] and with recombinant mouse FcRn [2] were 31 nM and 8.4 nM, respectively. For the same molecule, the entries for the “Affinity Increase (fold)” value in the assay with recombinant human FcRn [3] and with recombinant mouse FcRn [6] were 11.3 fold and 2.3 fold, respectively. For the same molecule, the binding result in assay [4] and in assay [5] was “binds” in each case.

B3: mAb5 (antibody)
heavy: not shown
light: B1 light
notes: also called mAb1QL
On to B3, for which the Kd in the assay with recombinant human FcRn [1] came to 27 nM; with recombinant mouse FcRn [2], 5.9 nM. Also, the “Affinity Increase (fold)” value with recombinant human FcRn [3] turned out to be 13 fold; in the assay with recombinant mouse FcRn [6], 3.3 fold. For the same molecule, the binding result in [4] and in assay [5] was “binds” in each case.

B4: mAb6 (antibody)
heavy: B2 heavy with M261Y, S263T, T265E, A316T, A389E, A443N
light: B1 light
notes: also called mAb1YTE
Take B4: the Kd worked out at 21 nM in the assay with recombinant human FcRn [1] and 1.9 nM with recombinant mouse FcRn [2]. Also, the entries for the “Affinity Increase (fold)” value with recombinant human FcRn [3] and with recombinant mouse FcRn [6] were 16.3 fold and 10.4 fold, respectively. Besides, the binding result in [4] and in [5] was “binds” each time.

B5: mAb2 (antibody)
heavy: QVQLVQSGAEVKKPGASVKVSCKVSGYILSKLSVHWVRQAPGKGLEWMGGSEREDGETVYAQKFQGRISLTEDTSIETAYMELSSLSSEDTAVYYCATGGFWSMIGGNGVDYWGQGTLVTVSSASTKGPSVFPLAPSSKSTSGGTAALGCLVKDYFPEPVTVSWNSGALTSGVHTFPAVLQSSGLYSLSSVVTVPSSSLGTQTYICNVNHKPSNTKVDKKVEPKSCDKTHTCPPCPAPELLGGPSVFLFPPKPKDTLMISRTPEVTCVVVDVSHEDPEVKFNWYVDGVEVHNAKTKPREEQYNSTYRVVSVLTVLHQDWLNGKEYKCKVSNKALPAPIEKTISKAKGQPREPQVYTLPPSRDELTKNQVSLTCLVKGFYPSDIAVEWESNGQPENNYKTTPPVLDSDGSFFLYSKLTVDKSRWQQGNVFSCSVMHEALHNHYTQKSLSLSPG
light: QAVVTQSPSSLPASVGDRVTITCRASQDIRNNLGWYQQKPGKAPERLIYGTSNLQSGVPSRFSGSGSGTEFTLTISSLQPEDFATYYCLQHNSYPPTFGRGTKVEIKRTVAAPSVFIFPPSDEQLKSGTASVVCLLNNFYPREAKVQWKVDNALQSGNSQESVTEQDSKDSTYSLSSTLTLSKADYEKHKVYACEVTHQGLSSPVTKSFNRGEC
notes: also called parent antibody mAb2
In the case of B5, the binding result in assay [7], in [9] and in [10] was “binds” throughout. Besides, the “Affinity Increase (fold)” value with recombinant mouse FcRn [8] and with recombinant human FcRn [12] was 1 fold in each case. For the same molecule, the values for the Kd with recombinant human FcRn [11], with Antigen (E2) and with recombinant mouse FcRn [13] were 328 nM, 0.13 nM and 22 nM, respectively.

B6: M104A/N108Q (antibody, V domains shown)
VH: QVQLVQSGAEVKKPGASVKVSCKVSGYILSKLSVHWVRQAPGKGLEWMGGSEREDGETVYAQKFQGRISLTEDTSIETAYMELSSLSSEDTAVYYCATGGFWSAIGGQGVDYWGQGTLVTVSS
VL: QAVVTQSPSSLPASVGDRVTITCRASQDIRNNLGWYQQKPGKAPERLIYGTSNLQSGVPSRFSGSGSGTEFTLTISSLQPEDFATYYCLQHNSYPPTFGRGTKVEIKR
notes: also called mAb2 M104A/N108Q; double mutant of mAb2 in CDRH3
As to B6, the binding result in assay [10] is “no binding”.

B7: mAb11 (antibody)
heavy: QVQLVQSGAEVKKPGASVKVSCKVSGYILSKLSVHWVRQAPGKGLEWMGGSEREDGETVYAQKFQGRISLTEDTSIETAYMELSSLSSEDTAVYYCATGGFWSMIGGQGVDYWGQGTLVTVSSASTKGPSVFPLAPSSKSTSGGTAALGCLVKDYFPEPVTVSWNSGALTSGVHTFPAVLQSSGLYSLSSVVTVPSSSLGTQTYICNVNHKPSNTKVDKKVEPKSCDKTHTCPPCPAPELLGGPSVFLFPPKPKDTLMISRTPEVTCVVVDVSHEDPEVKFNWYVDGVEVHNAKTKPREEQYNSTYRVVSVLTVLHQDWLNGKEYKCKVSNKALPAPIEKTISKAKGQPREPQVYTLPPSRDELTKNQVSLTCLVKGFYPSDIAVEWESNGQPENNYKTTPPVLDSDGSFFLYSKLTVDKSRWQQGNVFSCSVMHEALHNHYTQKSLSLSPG
light: B5 light
notes: also called mAb2N108Q; mAb2 N108Q
On to B7, for which the binding result in assay [7], in assay [9] and in assay [10] was “binds” in each case. Moreover, the “Affinity Increase (fold)” value in the assay with recombinant mouse FcRn [8] and with recombinant human FcRn [12] was 1.1 fold throughout. Also, the results for the Kd with recombinant human FcRn [11], with Antigen (E2) and with recombinant mouse FcRn [13] were 301 nM, 0.22 nM and 20 nM, respectively.

B8: mAb10 (antibody, V domains shown)
VH: B6 VH with A104I, Q108N
VL: B6 VL
notes: also called mAb2M104I
Turning to B8, the binding result in assay [10] is listed as “binds”. In the assay with Antigen (E2), this molecule had a Kd of 0.94 nM.

B9: M104A/G109A (antibody, V domains shown)
VH: B6 VH with Q108N, G109A
VL: B6 VL
notes: also called mAb2 M104A/G109A; double mutant of mAb2 in CDRH3
In the case of B9, the binding result in [10] was “no binding”.

B10: mAb12 (antibody, V domains shown)
VH: B6 VH with A104M, Q108N, G109A
VL: B6 VL
notes: also called mAb2G109A; mAb2 G109A
On to B10, for which the binding result in [10] was “binds”. This molecule showed a Kd in the assay with Antigen (E2) of 0.5 nM.

B11: mAb2 M104A (antibody, V domains shown)
VH: B6 VH with Q108N
VL: B6 VL
notes: also called variant comprising an alanine at position 8 of its CDRH3
As to B11, in assay [10], the binding result is given as “no binding”.
